Assay results: patent publication US20250228958A1, “TSP1 INHIBITOR” (Daiichi Sankyo Company, Limited, priority 2022, published 2025)
Blank lines part the entries; values can stand above or below the binder they belong to. Positions of bridges follow the written chain, without caps; N, C: chain ends. Non-standard residues stand in square brackets, D forms with d. No end group written: not given here. 2Nal = N[C@@H](Cc1ccc2ccccc2c1)C(=O)O; Gly(cPent) = N[C@H](C(=O)O)C1CCCC1; 4Pal = N[C@@H](Cc1ccncc1)C(=O)O; Agb = N=C(N)NCC[C@H](N)C(=O)O; Pen = CC(C)(S)[C@H](N)C(=O)O; Phg = N[C@H](C(=O)O)c1ccccc1; Tle = CC(C)(C)[C@H](N)C(=O)O; hCys = N[C@@H](CCS)C(=O)O

Biological target: Thrombospondin human platelet (Calbiochem, 605225) (human, UniProt P07996 19-1170)
Sequence (P07996 19-1170 limits assumed): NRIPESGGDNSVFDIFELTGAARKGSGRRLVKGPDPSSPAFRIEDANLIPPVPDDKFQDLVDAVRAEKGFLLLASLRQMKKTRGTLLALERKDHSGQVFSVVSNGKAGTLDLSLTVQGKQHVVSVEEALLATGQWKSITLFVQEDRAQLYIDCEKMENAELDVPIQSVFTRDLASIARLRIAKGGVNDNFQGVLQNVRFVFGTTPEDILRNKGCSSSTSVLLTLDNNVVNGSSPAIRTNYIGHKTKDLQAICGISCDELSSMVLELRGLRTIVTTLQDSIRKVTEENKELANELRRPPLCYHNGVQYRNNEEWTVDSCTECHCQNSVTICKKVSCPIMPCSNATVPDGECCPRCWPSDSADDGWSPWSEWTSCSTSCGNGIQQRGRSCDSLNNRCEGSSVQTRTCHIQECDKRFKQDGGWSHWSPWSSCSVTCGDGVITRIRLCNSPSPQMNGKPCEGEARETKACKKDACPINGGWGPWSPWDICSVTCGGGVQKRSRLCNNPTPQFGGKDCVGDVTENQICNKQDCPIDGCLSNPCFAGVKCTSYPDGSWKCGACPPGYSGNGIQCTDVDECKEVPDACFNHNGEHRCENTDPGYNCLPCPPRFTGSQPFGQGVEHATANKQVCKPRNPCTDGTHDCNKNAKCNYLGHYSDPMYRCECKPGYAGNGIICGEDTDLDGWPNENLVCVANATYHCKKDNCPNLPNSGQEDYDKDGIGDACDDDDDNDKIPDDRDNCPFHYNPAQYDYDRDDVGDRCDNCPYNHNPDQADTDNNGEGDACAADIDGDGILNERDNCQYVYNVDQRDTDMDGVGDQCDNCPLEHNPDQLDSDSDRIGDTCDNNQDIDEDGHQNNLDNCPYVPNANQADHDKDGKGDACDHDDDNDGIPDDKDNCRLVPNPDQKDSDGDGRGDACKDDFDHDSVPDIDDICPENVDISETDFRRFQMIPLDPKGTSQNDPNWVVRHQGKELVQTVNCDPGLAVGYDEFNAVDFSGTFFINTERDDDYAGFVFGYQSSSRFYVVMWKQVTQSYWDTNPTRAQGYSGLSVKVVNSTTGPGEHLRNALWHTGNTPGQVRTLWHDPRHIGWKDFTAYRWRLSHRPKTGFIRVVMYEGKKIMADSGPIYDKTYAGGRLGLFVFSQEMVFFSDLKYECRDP
Experiment: cell-based or functional assay

IC50 for inhibition of cell adhesion (HUVEC to coated human TSP1): 7.7 nM
Binder: [2Nal]RCGRDWCRW[Gly(cPent)]C-NH2 (bridge 3-8, N-12; not fully specified (N-terminus, bridges)) [Peptide-130]

IC50 for inhibition of cell adhesion (HUVEC to coated human TSP1): 14.2 nM
Binder: [2Nal]RCGRDW[hCys]RW[Gly(cPent)]C-NH2 (bridge 3-8, N-12; not fully specified (N-terminus, bridges)) [Peptide-131]

IC50 for inhibition of cell adhesion (HUVEC to coated human TSP1): 7 nM
Binder: [2Nal]R[hCys]GRDWCRW[Gly(cPent)]C-NH2 (bridge 3-8, N-12; not fully specified (N-terminus, bridges)) [Peptide-132]

IC50 for inhibition of cell adhesion (HUVEC to coated human TSP1): 125 nM
Binder: [2Nal]R[Pen]GRDW[hCys]RW[Gly(cPent)]C-NH2 (bridge 3-8, N-12; not fully specified (N-terminus, bridges)) [Peptide-133]

IC50 for inhibition of cell adhesion (HUVEC to coated human TSP1): 102 nM
Binder: [2Nal]R[hCys]GRDW[Pen]RW[Gly(cPent)]C-NH2 (disulfide 3-8; bridge N-12; not fully specified (N-terminus, bridges)) [Peptide-134]

IC50 for inhibition of cell adhesion (HUVEC to coated human TSP1): 208 nM
Binder: [2Nal]R[Pen]GRDW[hCys]RW[Gly(cPent)]C-NH2 (disulfide 3-8; bridge N-12; not fully specified (N-terminus, bridges)) [Peptide-135]

IC50 for inhibition of cell adhesion (HUVEC to coated human TSP1): 162 nM
Binder: [2Nal]R[hCys]GRDW[Pen]RW[Gly(cPent)]C-NH2 (bridge 3-8, N-12; not fully specified (N-terminus, bridges)) [Peptide-136]

IC50 for inhibition of cell adhesion (HUVEC to coated human TSP1): 80.6 nM
Binder: [2Nal]R[Pen]GRDWCRW[Gly(cPent)]C-NH2 (bridge 3-8, N-12; not fully specified (N-terminus, bridges)) [Peptide-137]

IC50 for inhibition of cell adhesion (HUVEC to coated human TSP1): 92.5 nM
Binder: [2Nal]RCGRDW[Pen]RW[Gly(cPent)]C-NH2 (disulfide 3-8; bridge N-12; not fully specified (N-terminus, bridges)) [Peptide-138]

IC50 for inhibition of cell adhesion (HUVEC to coated human TSP1): 30.9 nM
Binder: [2Nal]RCGRDW[Pen]RW[Gly(cPent)]C-NH2 (bridge 3-8, N-12; not fully specified (N-terminus, bridges)) [Peptide-139]

More lines, now with the values behind:

Binder: [2Nal]R[hCys]G[Agb]NW[hCys]RW[Gly(cPent)]C-NH2 (disulfide 3-8; bridge N-12; not fully specified (N-terminus, bridges)) [Peptide-1]
IC50 for inhibition of cell adhesion (HUVEC to coated human TSP1): 12.6 nM

Binder: [2Nal]R[hCys]GRDW[hCys]RW[Gly(cPent)]C-NH2 (disulfide 3-8; bridge N-12; not fully specified (N-terminus, bridges)) [Peptide-11]
IC50 for inhibition of cell adhesion (HUVEC to coated human TSP1): 26 nM

Binder: [2Nal]R[hCys]GRNW[hCys]RWVC-NH2 (disulfide 3-8; bridge N-12; not fully specified (N-terminus, bridges)) [Peptide-12]
IC50 for inhibition of cell adhesion (HUVEC to coated human TSP1): 18.6 nM

B1: Peptide-125 (peptide)
peptide: [2Nal]R[hCys]GRDW[hCys]RW[Gly(cPent)]C-NH2
modifications: linker 3-8 via acetone bridge (-S-CH2-CO-CH2-S-); bridge N-12; not fully specified (N-terminus, bridges)
IC50 for inhibition of cell adhesion (HUVEC to coated human TSP1): 305 nM

Binder: [2Nal]RCGRDW[hCys]RW[Gly(cPent)]C-NH2 (disulfide 3-8; bridge N-12; not fully specified (N-terminus, bridges)) [Peptide-126]
IC50 for inhibition of cell adhesion (HUVEC to coated human TSP1): 10.8 nM

Binder: [2Nal]R[hCys]GRDW[hCys]RW[Gly(cPent)]C-NH2 (bridge 3-8, N-12; not fully specified (N-terminus, bridges)) [Peptide-127]
IC50 for inhibition of cell adhesion (HUVEC to coated human TSP1): 11.6 nM

Binder: [2Nal]RCGRDWCRW[Gly(cPent)]C-NH2 (disulfide 3-8; bridge N-12; not fully specified (N-terminus, bridges)) [Peptide-128]
IC50 for inhibition of cell adhesion (HUVEC to coated human TSP1): 8.4 nM

Binder: [2Nal]R[hCys]GRDWCRW[Gly(cPent)]C-NH2 (disulfide 3-8; bridge N-12; not fully specified (N-terminus, bridges)) [Peptide-129]
IC50 for inhibition of cell adhesion (HUVEC to coated human TSP1): 43.7 nM

Binder: [2Nal][Agb][hCys]G[Agb]NW[hCys]RW[Gly(cPent)]C-NH2 (disulfide 3-8; bridge N-12; not fully specified (N-terminus, bridges)) [Peptide-2]
IC50 for inhibition of cell adhesion (HUVEC to coated human TSP1): 20 nM

B2: Peptide-115 (peptide)
peptide: [2Nal]RSG[Agb]NWVRW[Gly(cPent)]C
modifications: bridge N-12; not fully specified (N-terminus, C-terminus, bridges); also: C-terminus amide-bonded to a linker (not defined)
IC50 for inhibition of cell adhesion (HUVEC to coated human TSP1): 17.5 nM

Binder: [2Nal][Phg][hCys]G[Agb]NW[hCys]RW[Gly(cPent)]C-NH2 (disulfide 3-8; bridge N-12; not fully specified (N-terminus, bridges)) [Peptide-3]
IC50 for inhibition of cell adhesion (HUVEC to coated human TSP1): 29.9 nM

Binder: [2Nal]R[hCys]G[Agb]NW[hCys][Phg]W[Gly(cPent)]C-NH2 (disulfide 3-8; bridge N-12; not fully specified (N-terminus, bridges)) [Peptide-4]
IC50 for inhibition of cell adhesion (HUVEC to coated human TSP1): 33.8 nM

Binder: [2Nal]R[hCys]G[Agb]NW[hCys][4Pal]W[Gly(cPent)]C-NH2 (disulfide 3-8; bridge N-12; not fully specified (N-terminus, bridges)) [Peptide-5]
IC50 for inhibition of cell adhesion (HUVEC to coated human TSP1): 23.6 nM

Binder: [2Nal]R[hCys]GRNW[hCys]VW[Gly(cPent)]C-NH2 (disulfide 3-8; bridge N-12; not fully specified (N-terminus, bridges)) [Peptide-7]
IC50 for inhibition of cell adhesion (HUVEC to coated human TSP1): 31.1 nM

Binder: [2Nal][Tle][hCys]GRNW[hCys]RW[Gly(cPent)]C-NH2 (disulfide 3-8; bridge N-12; not fully specified (N-terminus, bridges)) [Peptide-8]
IC50 for inhibition of cell adhesion (HUVEC to coated human TSP1): 12.6 nM

Binder: [2Nal]R[hCys]G[Agb]DW[hCys]RW[Gly(cPent)]C-NH2 (disulfide 3-8; bridge N-12; not fully specified (N-terminus, bridges)) [Peptide-9]
IC50 for inhibition of cell adhesion (HUVEC to coated human TSP1): 22.4 nM
